These results are taken from IntAct's records for PubMed 18275819.

This test addresses cac1c_human CACNA1C (UniProt Q13936).

Chain of cac1c_human CACNA1C (Q13936 whole entry): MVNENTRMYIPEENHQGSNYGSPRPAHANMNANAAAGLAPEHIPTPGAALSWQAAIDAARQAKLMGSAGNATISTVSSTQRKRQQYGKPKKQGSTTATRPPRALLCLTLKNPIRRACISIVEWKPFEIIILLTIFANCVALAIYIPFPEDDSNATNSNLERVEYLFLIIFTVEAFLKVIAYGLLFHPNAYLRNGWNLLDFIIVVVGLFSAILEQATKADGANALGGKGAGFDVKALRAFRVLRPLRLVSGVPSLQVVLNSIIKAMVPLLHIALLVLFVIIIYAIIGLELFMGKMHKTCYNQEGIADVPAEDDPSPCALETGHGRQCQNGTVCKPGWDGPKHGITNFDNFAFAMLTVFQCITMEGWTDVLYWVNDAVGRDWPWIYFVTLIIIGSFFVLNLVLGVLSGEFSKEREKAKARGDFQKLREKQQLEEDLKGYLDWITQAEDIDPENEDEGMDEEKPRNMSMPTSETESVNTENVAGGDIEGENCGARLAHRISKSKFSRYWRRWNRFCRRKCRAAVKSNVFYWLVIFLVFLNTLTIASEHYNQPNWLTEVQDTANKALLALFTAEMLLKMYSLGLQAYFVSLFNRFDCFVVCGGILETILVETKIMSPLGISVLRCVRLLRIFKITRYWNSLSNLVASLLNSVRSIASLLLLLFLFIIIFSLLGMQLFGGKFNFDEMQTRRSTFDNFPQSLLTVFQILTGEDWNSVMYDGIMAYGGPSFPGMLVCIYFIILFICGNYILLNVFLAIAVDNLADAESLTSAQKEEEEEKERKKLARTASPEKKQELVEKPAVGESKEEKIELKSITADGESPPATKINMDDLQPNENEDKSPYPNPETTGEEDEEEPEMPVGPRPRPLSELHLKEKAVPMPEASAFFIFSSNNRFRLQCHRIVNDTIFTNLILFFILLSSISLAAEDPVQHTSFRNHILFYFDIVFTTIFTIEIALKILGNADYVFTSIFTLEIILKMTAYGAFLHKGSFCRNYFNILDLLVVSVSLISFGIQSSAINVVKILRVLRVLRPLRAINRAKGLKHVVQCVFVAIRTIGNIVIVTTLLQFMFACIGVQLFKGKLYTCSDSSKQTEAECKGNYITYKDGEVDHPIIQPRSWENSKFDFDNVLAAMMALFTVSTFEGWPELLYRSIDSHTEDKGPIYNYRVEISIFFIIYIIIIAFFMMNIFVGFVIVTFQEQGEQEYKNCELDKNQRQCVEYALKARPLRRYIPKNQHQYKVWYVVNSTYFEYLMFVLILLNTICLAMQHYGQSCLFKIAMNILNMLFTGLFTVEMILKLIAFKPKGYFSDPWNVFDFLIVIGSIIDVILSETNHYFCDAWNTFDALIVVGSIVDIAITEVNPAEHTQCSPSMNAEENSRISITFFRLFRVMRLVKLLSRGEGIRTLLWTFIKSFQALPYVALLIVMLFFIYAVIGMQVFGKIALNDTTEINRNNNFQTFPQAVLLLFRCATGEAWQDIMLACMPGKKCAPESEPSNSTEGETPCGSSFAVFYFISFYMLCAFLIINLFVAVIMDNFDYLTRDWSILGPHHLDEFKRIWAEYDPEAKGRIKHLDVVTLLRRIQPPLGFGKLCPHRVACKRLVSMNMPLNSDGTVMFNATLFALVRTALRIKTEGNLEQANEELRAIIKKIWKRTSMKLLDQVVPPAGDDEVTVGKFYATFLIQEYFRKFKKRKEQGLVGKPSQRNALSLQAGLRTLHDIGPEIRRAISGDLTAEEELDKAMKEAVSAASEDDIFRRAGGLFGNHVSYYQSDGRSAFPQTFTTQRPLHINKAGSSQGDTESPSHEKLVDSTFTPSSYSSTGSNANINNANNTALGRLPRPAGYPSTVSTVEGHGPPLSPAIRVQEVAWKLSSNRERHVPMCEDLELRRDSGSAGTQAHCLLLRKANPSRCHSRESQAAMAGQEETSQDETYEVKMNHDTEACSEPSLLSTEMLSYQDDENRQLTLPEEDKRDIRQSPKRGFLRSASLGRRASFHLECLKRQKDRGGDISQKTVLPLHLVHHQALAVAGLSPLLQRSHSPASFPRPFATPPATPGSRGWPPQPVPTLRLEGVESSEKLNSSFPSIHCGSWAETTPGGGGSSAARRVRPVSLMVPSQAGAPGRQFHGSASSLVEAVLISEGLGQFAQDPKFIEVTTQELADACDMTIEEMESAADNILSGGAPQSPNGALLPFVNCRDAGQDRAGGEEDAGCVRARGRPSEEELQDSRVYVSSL

On to “Voltage-dependent L-type calcium channel subunit beta-2 (Rattus norvegicus (Rat)), Q8VGC3-2 M245A”, for which the “effect of a mutation on the interaction” value is recorded as “decreasing interaction”.
